Laboratory results: the DeepSol protein solubility set

Assay: soluble on expression in E. coli; label from the status in PepcDB or PDB records

Sequence	soluble on expression in E. coli
MGSDKIHHHHHHAPTSIPDSALRTAAQLREQALADSTGFAVVESLTTEVGPRIAGGEADPRAVAWAKAKFKSLGFDKVWTEPVTFPKWERRSEQAAVIGAHAQPLHITALGGSPGGTVEGEIVRFENLAALQAAPAGSLAGKIAFVDYQMVKARDGKDYGNGGAVRSKGPSEAIRKGAIGFVMRSAGTDSHRVPHTGITRFDEGLTPVPAAALSVPDANQLARLAALGSTRVRLALDCGWDGTATSYNVIGEITGRSKPKEVVVIGGHLDSWDLGTGAIDDGAGVAITMAAGHLIGQLKQAPKRTIRVVAFANEEQGLYGGKAYAAAHGKDAKDMALHQIGAESDFGAGRIYAFNTGSAAPEQSRAAT	not soluble
MGSDKIHHHHHHAQFKIGGKKINVGKVVQAGSDAAKAITLSDSDIAAMSKEYMQWMDTHNPLTAADSEYGKRLEKLTGHIKEVDGLKVNFGVYEVVDVNAFACGDGSVRICAGLMDIMTDDEVMAVVGHEIGHVIHTDSKDAMKSAYLRSAVKNAAGAASSTVSKLTDSELGAMAEALAGAQYSQKQESEADDYGFEFSIKHNIDPYAMYNALNKLLELSAEAPKESKFQKMFSSHPDTAKRVARAKEKADNYTKNK	not soluble
MGSDKIHHHHHHAQIADRVYKTDYHIDPEKARELSVELDNISFFKDNEYTGKFTKGYSLPGLWVQGKAVYYPLRNIKLEAGVHMLIYHGANKYPSMAYQDIAYWKGDQYQKGVHVLPYFRAQMALSDHVNIVLGNIYGASNHNLIEPLYNPELNLTCDPEAGLQLLYDSKAFDLDVWVNWQSFIFREDVHQEAFTVGISSRLKYNDPASRFHFYTPVQGLVQHRGGEIDTIFNNSVQTLMNGAIGVGGVWNTGHRIFKNLNVELDATGYYQQAGEIWPFDSGYGLYARASADIYDFRVKTSYWTCEDFISMFGSPFFGAASMIDEGVTFDRPQMIYLGVEYSRQLAKGFSIGVDVDVFHHLSGDMNDADGVKQPMGSATSFTAGVYMRINPSFLIKKF	not soluble
MGSDKIHHHHHHAQKKVIIEDEEPNSVMFVSTNKAGDEIIRIMNETRLPRFHEPKAPRFVLTDRQGKFALGIGGYVRATAEYDFGGIVKDVDFYPALIPNKGSADRARNQFQMDISTSTLFLKLVGHTKRLGDFVVYTAANFRGDGKTFELQNAYATFLGFTLGYSYGNFMDLAALPPTIDFAGPNGSAFYRTTQLSYMCDKLKNWKFGVGVEMPSVDGTTNQYLTINTQRMPDFTASAQYNWNANSHLKLAAIVRSMTYSSSVDNKAHSKAGYGLQASTSFNVTPKWQVYGQVNYGKGIGQYLNDLSNLNVDIVPNPEKEGRMQTLPMLGWFAGLQYNISKNVFVSGTYSLSRLYSEHTYPSDEPDMYRKGQYLVANLFWNVTSNLQVGAEYLRGWRTDFSSNTRHANRMNALVQYSF	not soluble
MGSDKIHHHHHHAQKNAAAVTLNLAKAVTQSPKTVLMSELASDVRYFPLETTDNCLLGNECSIIYAGNSIIAGDAQTRSFYRFDKNGKFMNKIGRQGQGPEEYAVGLLFFTDPDNQKLYVQDFQDIICYGFNGKFLRRIPAPHLNMGTGAVDGQGSILYCDNNYFMRKDNPQQLFLIDENGKKLKIWKGYMEPGKKYGVNLSTRDVMYCYGGDIYFKPALENLIYKIDANRKKTLAWKFDCSGKDVDVSANEIDPGKRFQSIAVQQVFESDRYFFVLYVLKNESFVGLYDKQKKSFSNVIIKDDLAAGFDFTPPGTGLGNQLANARMVGYLSKGKRYSKALLPERKKELDELINRLDEEDNPVMVVVTLK	not soluble
MGSDKIHHHHHHAQSIAKGSTPDFSEARTLIKGALENPETKDDAKTWYVAGFIEDQQFSNERTKQVLGQQPDEPVMYEALGSILPYFEKAYELDQLPNEKGKVKPKFTKDIKGILGANHVYYINGGAYYFDQKDYNKAYDFFEQYLKISDMPMFKGEAVAERDSNFMTVQFYAAVAATQLGDSQKAIAALERAKNTDYRASEVYQYLCYEYEQAKDTVNLEKTLEEGLNKFPEEQYFLMSLINNYIYSNRNEKAIEYLNTAIAKDSNNPQLYDVMGRVYETGLKDYAKAEEYFKKALAINPDYIESLSNLGRVYYNQGVNKQGEANMINDAKQYQEELGKAKEFFKQALPYFEKAHQMKPEEREYMTALRGIYYNLNMGDKFDAIEAEMNK	not soluble
MGSDKIHHHHHHAQTDPSQLKKEGSDAFNAKNYPVAYAKFSEYLKQTNNQDSAIAYYCGMAADEVKKYAEAVTFFDIAIQKKFNIGNAYARKALALDAMKKTDEYVATLEEGLKVDPDNKTMIKNYGLHYLKAGIAAQKAGKVEEAEECFKKVIPLDHKTYKTNALYSLGVLCYNDGANILKKAAPLANSDADKYAAEKEKADGRFKEAIGYLEEATKVSPEDTKSKTMLSQVQAAMK	not soluble
MGSDKIHHHHHHAQVKTYKYRVNFRDKAETTYALDKPSAYLSERALERRMKQGLPVDSTDIPVCRSYIDMLVGKGAQLVSKSKWNNTVVVQVSDTSVIDKVAALPFVTAVRKVWTAPDSIPARNANRKKEVTNRVTKSNNYYGDAWRQIAVHHGDSLHAAGFRGKGMQIAVIDAGFYNADEISVFKGMDLLGTRDFVNSHSDIYAENYHGMKVLSCMAANKPNVLVGTAPEASYWLLRSEDDDTEQPVEEDYWAEALEFADSVGVDVVNTSLGYYEFDDTTMNYRYRDLDGHYSLMSHSASLAADKGLVLVCSAGNSGRGTWKKITPPGDAENVITVGAADRNLVNADFSSVGNTTDGRVKPDVMAVGVASAVAGNDGTVSHANGTSFASPTLCGLVACFWQACPWLTAKQVVEAVRNAGDRKEYPDNIYGYGVPDIWKACQIELEKKK	not soluble
MGSDKIHHHHHHAREAEFKKIKESWTLQADGTQVYRQSKVLTLYTHTAMNRTYGESFITYDPRYQTLQIHESYTRQKDGNIVKTPANALVEVLPSAAANAPAFNALREMVVVHTGLELGATIYLDYSITTKPGYLPGIQICRLLEHSSPVKEYEISITVPRGQHLEYALNNHKEKASVTESEGMKQVSWTLKNLPALSREPQVSVIGGDLPLLTATTEEKPLSFLTSQWQPEGDAGIRALAGKLTAGAKDDKEKVTAIRDYVIDNLYYSSLPLAESGYRIRPAAEVIRSAYGTEAEKANLMAALLKAAGLKAGIGAVCAPSENTASLGVGSIRELFVWTDAGGSQQALSLKGKTPSAVSWQKDYAYVASLTQPFELNLPPVTLRKDYALQPDAANAKDGYLVFTLPVERGSLAGSQYVRFNSKRTSNLLLPGLADESFTYTVDTPAGMEPVTRPMEKKMDNAVGTLTISIRPEGAKTRVIRSLKLKKQMIRPADYAAFRQLMTEYGAVDGLTLVYRKPLP	not soluble
MGSDKIHHHHHHASCEKDPDMGKLDDNYLVYTNYDKQANFKDFSTFYLADKILVISDSKEPEYLEGEGAEQILAAYTENMEAKGYQPAADKESADLGIQVSYIASTYYFTGYTQPEWWWGYPGYWGPSYWGNWGGWYYPYAVTYSYSTNSFITEMVNLKADEGEGKKLPVVWTSYLTGFETGSKAINRTLAIEAVNQSFTQSPYLTNK	not soluble
MGSDKIHHHHHHATTLLVSCSNQQTQTKAITVSDTTLLSAEEFSQKIKKEPNALILDVRTPEEFSEAHIANATNVNWKDNFASGITEVNKNQPVLVYCLSGGRSASASDYLRKNGYTQVYELQGGLLKWQASNFEVVADTVTAAQDSGMTLQQFEALLVTDKYVLIDFYATWCGPCKMMEPALEDIAATMSDKVIVVRIDVDKNEELSKHFEVESLPTVQIYKNKKLVWEDIGYKTKKQLVSQLK	not soluble
MGSDKIHHHHHHCDETELDQTVTNQVNPQKEEDSRIVFNSAKEFYNTLDTLSYMTYEEQTEWIRASGIKYPLYKDLEFCEDEIMTEMPRAFQALFNHKMEMQINDTVIAFEKGNMYVKSIKEKILPVPVLYGQVGVNQEESEVTTRTVYETKYGKIGTSYQYEFKIPEGKSKYKYVHELKSVIIKENLPPYKSWSNLFLVLKLEWKGKKKWKVAEKEERNISIDLNVCKRNLAKVKYNQEIRIDVQNMDSKSHSINIEGYIIHEVVGIPSTKMFNGWSYPLVEWQPR	not soluble
MGSDKIHHHHHHDANGVKIGVITDMSGSYADLSGKGSVLAAQMAVEEFGGKALGKPVTVLSADHQNKADIASSLARRWFDTDGVDMVIDFPNSSTALAVQEVAKQKQKIDIVSTGGAMALTNQNCSPTGFHWAWDTYSVSYPLVKRMIDQGRNSWYYITVDYAFGQSLEADFRKAVDVSGGKNVGSTKHPLNASDFSSPVVAASASKANVVVLANAGNDMINGVKAAGEFGLVKAGQTVITPSTFITDIKSLGLNTAQGLTYVDPFRLDLDEKSKDFVERYYKRHKAYPTHGQIGVYSGVLHYLKAVEAAKTVDGPAVADKMRALPVNDAFVHNGKVRADGRMVHDMYLAQAKTPAESKGPWDLVKYIATIPGDEAFRPLSASECALVKK	not soluble
MGSDKIHHHHHHDETVYDKLPADDFGQSTAELNALIGNSHNTMKKFWTEYMHLSECSGSMAVTPTRRGGDWYDGGQYREIYMHTWTSQTSRVKSAWKAATEAIGTCNEAIRKLQNSEILTEEEKAQDVADLRGVRAFWIYVMMDYWGNIPLLTEFHPTDKVFPGNSSRQEVFDWLIQEVEEIKDICPPATTENYGSFTQGAAYSLLAKLYLNAEAWGVTFSGNAYQKVIDNCDKVMAMGYILEPNWKDNFSVTNENSKEAILAATFSSSDTGNDGNVKNELHNNTLHYKDYLSLGITASGTWNGICAQPEYVRLFDEEDARLDGTFLTGLMIDKSTGKPIMTDHNNELNHTIDVNMIPGMEYDGTNWSAVEQHDGARCFKWEFASDLTSSMGNDFHIFRLADIYLMKAEALLRGGGSVSEATALVNTIRERGYGNSDHNYATVTLKEVQLERRLELAWEVYSRQDDIRFGCFTTGMWPQSNCERKADDYLKLLPVSQDAWQVNPNLKQNPGYAAFSK	not soluble
MGSDKIHHHHHHEEEEQKPAYGKIDVAVSVTLPQPESVNTLTRAGGPYTDTDIKNADLLIFDKDAKFMERVKVENDRLVITGTGINFTVRLDATSERRIIHLVANGRSADGTSDRLNFGDITPGMTENAAISSLQTASLEHVDEGESTLLNHVMPLVMWGRFALNGINIVTKAEGVKLLRSTACIQVKKGNGGGNTGLDDFVIEGITVHQGACHGFLAPTDCTGEVNTPVVTNPVTGGIYLDYRKGWVNGAEPSLYIYERNCSASDYMGVVIAARYKGKKGYYKVVMNGNDGSPLNIVRNHRYIVTVVGVNGPGYESPDIAVASAPSNALKVELTDEDTDLPCIVADGQYRMASSNNVFSLYGKTGVTTSATGVDICTVYSSRGIQPVLTLPDDCNWLTNLSAQALGSNKYKITGDFTSAANDAVATTLTMTCDNLSQPVRVSWNPIISDQKDTDSFVLDLVGSTDRNWTVRVLNPTSPGWLFLHPSAASPGALPGDGMVSELSSKYSSHAYLHVAFGASRRGTVQMTSASSGETVARKIVVIQ	not soluble
MGSDKIHHHHHHEIRENLLGNYSDRVLVVSHRADWRNAPENSLQGIRNCIDMGVDMVEIDLKKTKDGHLVIMHDKTINRTMTGKGNAEDYTLAELKAMRLKNGAGCKTRHQIPTLEEVMLLCKGKIMVNIDKGYDYFQEAYAVLEKTGTIDHCVIKAGLPYERVKAENGDVLDKVIFMPIVNLHKEGAEKIINDYQSHMKPTAYELVFNDDNEEILRLIRKVRDSGAKLFINSLWPELCGGHDDDRAVELHQPDESWGWILNQGAKLIQTDRPALLLEYLRKKKLHD	not soluble
MGSDKIHHHHHHLAQLYFYYSSMNAGKSTSLLQSSYNYRERGMNTLVMTASIDDRYGKGKVASRIGIETEAQVFSSQDDLTQMISDVHQATPLSCVLVDECQFLSKEQVKQLTHVVDNIDIPVLCYGLRTDFQGELFSGSHYLLAWADKLVELKTICHCGRKANMVVRLDGDGKVMREGEQVAIGGNESYESVCRKHFREFIWD	not soluble
